Assay results taken from article PMC5855320, “Activation of the Notch Signaling Pathway In Vivo Elicits Changes in CSL Nuclear Dynamics” (Developmental Cell, 2018).

How the values were obtained:
[1] = tested on: Su(H) WT (Drosophila melanogaster); assay: ITC; details: ITC: 50 mM sodium phosphate pH 6.5, 150 mM NaCl, 10 C; 10 uM Su(H) in cell, 100 uM DNA in syringe; one-site model
[2] = target: T1, Recombinant Su(H) (98-523) (Drosophila melanogaster, UniProt P28159 98-523); assay: ITC; MicroCal VP-ITC; typically 50 μM Su(H) in the syringe and 5 μM NICD in the cell; 25°C; 50 mM sodium phosphate pH 6.5, 150 mM NaCl; one-site binding model; details: both partners purified
T1 construct: Suppressor of Hairless (Su(H)), the Drosophila CSL, residues 98-523; Wild-type parent of the NBM mutant in the ITC experiment; also called Suppressor of Hairless; CSL; source: bacteria, purified (glutathione-Sepharose, cation exchange, size exclusion chromatography)
T1 sequence (P28159 98-523): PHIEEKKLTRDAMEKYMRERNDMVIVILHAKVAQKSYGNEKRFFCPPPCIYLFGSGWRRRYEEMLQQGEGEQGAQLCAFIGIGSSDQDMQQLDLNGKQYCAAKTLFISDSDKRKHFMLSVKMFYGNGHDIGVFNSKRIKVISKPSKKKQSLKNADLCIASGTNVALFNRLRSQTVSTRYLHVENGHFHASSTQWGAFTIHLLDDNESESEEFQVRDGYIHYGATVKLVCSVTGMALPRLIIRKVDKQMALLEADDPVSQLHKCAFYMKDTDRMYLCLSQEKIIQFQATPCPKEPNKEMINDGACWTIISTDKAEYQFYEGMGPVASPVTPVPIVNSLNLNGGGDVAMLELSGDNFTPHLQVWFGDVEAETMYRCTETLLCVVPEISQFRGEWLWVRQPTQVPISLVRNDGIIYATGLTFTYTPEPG

| Molecule | Kd [1] | binding result [2] |
| --- | --- | --- |
| ITC DNA (Su(H) binding DNA, sequence not given) | 460 nM |  |
| Recombinant NICD (1762-2142) (domain or fragment, Drosophila melanogaster, UniProt P07207 1762-2142, looked up, Notch intracellular domain (NICD), Drosophila Notch, residues 1762-2142; also called Notch intracellular domain; source: bacteria, purified (glutathione-Sepharose, cation exchange, size exclusion chromatography)) MVLSTQRKRAHGVTWFPEGFRAPAAVMSRRRRDPHGQEMRNLNKQVAMQSQGVGQPGAHWSDDESDMPLPKRQRSDPVSGVGLGNNGGYASDHTMVSEYEEADQRVWSQAHLDVVDVRAIMTPPAHQDGGKHDVDARGPCGLTPLMIAAVRGGGLDTGEDIENNEDSTAQVISDLLAQGAELNATMDKTGETSLHLAARFARADAAKRLLDAGADANCQDNTGRTPLHAAVAADAMGVFQILLRNRATNLNARMHDGTTPLILAARLAIEGMVEDLITADADINAADNSGKTALHWAAAVNNTEAVNILLMHHANRDAQDDKDETPLFLAAREGSYEACKALLDNFANREITDHMDRLPRDVASERLHHDIVRLLDEHVPR |  | binds |
